From patent publication US20050153887A1
Each block holds one molecule with its values, some of them ahead of it.

Experiments:
Assay in all cases: cell-based or functional assay
[1] = molecular target: Dishevelled (overexpressed in 293T cells for the reporter assay)
[2] = molecular target: Ryk (DNA construct expressing Ryk, transfected into 293T cells for the reporter assays)
[3] = molecular target: endogenous Ryk of mouse (mouse) (UniProt Q01887)
[4] = molecular target: endogenous Ryk in 293T cells (human) (UniProt P34925)
UniProt P34925, sequence (P34925 other isoform, or with tags, fused parts or gaps limits assumed): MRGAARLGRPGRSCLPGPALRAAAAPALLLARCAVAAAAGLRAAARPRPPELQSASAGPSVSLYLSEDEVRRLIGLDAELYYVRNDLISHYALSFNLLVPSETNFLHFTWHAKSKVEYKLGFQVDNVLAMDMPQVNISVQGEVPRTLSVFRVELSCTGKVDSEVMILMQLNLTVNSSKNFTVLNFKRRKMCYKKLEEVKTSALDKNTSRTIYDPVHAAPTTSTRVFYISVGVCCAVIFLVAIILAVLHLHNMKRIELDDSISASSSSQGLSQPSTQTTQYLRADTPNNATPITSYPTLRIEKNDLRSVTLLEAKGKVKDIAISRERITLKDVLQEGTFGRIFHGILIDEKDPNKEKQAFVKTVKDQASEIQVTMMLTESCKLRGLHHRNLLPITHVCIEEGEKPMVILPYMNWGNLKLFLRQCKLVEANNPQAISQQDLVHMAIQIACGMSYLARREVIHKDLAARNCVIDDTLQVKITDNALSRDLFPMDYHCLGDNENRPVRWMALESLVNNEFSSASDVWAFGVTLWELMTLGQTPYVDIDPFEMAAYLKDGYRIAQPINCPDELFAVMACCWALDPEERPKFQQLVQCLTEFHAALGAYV

UniProt Q01887, sequence (Q01887 35-594 limits assumed): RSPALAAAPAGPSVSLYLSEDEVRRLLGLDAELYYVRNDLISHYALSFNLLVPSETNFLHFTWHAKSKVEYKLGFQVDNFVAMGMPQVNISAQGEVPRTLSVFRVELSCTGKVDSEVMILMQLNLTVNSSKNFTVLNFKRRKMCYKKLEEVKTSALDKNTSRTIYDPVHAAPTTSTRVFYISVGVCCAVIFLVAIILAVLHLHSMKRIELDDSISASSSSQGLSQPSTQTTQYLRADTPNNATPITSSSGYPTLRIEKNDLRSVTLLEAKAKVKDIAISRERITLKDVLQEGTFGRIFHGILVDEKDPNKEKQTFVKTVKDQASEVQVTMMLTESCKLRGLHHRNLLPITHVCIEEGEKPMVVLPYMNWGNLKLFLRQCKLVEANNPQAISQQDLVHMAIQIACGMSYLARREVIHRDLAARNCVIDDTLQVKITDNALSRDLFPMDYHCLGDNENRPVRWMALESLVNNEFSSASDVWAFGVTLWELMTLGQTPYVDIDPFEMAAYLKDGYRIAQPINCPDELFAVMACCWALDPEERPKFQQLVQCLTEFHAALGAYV

- activation of the TCF-luciferase reporter on co-expression of Ryk with Dishevelled (Dishevelled alone about 15-fold) [1]: 25 fold
Molecule: Ryk (DNA construct expressing Ryk, transfected into 293T cells for the reporter assays) (receptor)

- activation of the TCF-luciferase reporter in 293T cells transfected with Ryk and treated with Wnt3a conditioned medium [2]: 5 fold
- average length of neurites of DRG explants in Wnt3a conditioned medium, Ryk siRNA mice against wild type [3]: 2 fold
Molecule: Wnt3a (Wnt3a conditioned medium) (ligand)

- activation of the TCF-luciferase reporter in wild type 293T cells after Wnt stimulation [4]: 25 fold
- inhibition of TCF-driven transcription induced by Wnt-1 in Ryk siRNA-containing 293T cells [4]: 12 fold
B1: Wnt-1 (cotransfected into 293T cells for the reporter assay) (ligand, UniProt P04628 28-370, looked up, species assumed)
Proto-oncogene Wnt-1: ANSSGRWWGIVNVASSTNLLTDSKSLQLVLEPSLQLLSRKQRRLIRQNPGILHSVSGGLQSAVRECKWQFRNRRWNCPTAPGPHLFGKIVNRGCRETAFIFAITSAGVTHSVARSCSEGSIESCTCDYRRRGPGGPDWHWGGCSDNIDFGRLFGREFVDSGEKGRDLRFLMNLHNNEAGRTTVFSEMRQECKCHGMSGSCTVRTCWMRLPTLRAVGDVLRDRFDGASRVLYGNRGSNRASRAELLRLEPEDPAHKPPSPHDLVYFEKSPNFCTYSGRLGTAGTAGRACNSSSPALDGCELLCCGRGHRTRTQRVTERCNCTFHWCCHVSCRNCTHTRVLHECL
